Data as given in patent US20180292408A1.

Assays:
[1] = molecular target: β-gal-Core-192 (HCV-241) (hepatitis C virus); assay: lateral flow immunoassay, C7-50 labelled with colloidal gold, purified rabbit antibody on the test line
[2] = molecular target: β-gal-Core-192 (HCV-241) (hepatitis C virus); assay: sandwich ELISA, C7-50 coated, detected with llama serum and HRP-goat-anti-llama antibody
[3] = molecular target: β-gal-Core-192 (HCV-241) (hepatitis C virus); assay: sandwich ELISA, C7-50 capture, llama anti-serum detection

Chain of β-gal-Core-192 (HCV-241) (hepatitis C virus) (P00722 2-1024): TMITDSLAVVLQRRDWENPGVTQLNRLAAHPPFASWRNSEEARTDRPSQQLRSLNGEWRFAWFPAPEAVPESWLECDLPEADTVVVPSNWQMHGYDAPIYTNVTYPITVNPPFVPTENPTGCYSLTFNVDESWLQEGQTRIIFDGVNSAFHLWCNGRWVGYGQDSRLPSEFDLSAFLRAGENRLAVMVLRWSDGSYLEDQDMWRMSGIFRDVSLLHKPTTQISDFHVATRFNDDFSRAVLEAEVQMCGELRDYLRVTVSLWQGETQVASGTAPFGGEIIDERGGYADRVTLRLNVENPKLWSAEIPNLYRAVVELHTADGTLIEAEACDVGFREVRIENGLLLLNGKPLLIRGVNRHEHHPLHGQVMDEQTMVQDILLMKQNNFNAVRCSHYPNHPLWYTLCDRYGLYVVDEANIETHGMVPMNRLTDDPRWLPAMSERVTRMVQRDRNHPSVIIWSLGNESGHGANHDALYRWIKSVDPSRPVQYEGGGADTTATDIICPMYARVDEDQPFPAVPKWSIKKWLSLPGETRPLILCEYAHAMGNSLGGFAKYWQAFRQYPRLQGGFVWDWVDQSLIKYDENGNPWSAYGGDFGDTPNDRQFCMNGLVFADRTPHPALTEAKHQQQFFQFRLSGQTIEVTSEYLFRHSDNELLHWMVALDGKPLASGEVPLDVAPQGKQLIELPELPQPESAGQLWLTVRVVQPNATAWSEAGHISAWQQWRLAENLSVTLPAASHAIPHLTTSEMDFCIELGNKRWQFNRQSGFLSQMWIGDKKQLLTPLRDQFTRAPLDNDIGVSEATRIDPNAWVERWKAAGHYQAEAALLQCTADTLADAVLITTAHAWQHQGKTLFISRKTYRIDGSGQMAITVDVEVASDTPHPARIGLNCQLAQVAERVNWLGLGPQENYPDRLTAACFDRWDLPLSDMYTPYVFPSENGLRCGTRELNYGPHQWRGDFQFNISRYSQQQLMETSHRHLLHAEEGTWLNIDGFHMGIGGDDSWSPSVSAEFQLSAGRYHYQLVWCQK

Substance: mouse monoclonal antibody (clone C7-50), Abcam
- antigen concentration detected in LFIA [1]: 0.3 ng/µL
- OD450 at 0 ng/ml antigen (background) [2]: 0.181 OD450
- OD450 at 8 ng/ml antigen [2]: 0.221 OD450
- OD450 at 40 ng/ml antigen [2]: 0.214 OD450
- OD450 at 200 ng/ml antigen [2]: 0.3 OD450
- OD450 at 1000 ng/ml antigen [2]: 0.494 OD450
- OD450 at 5000 ng/ml antigen [2]: 1.74 OD450
- OD450 at 25000 ng/ml antigen [2]: 2.18 OD450
- OD450 at 125000 ng/ml antigen [2]: 2.27 OD450
- detection limit of the sandwich ELISA [3]: < 40 ng/mL
